Assays:
[1] = target: T1, human plasma-derived von Willebrand factor (VWF) (human, UniProt P04275 764-2813); experiment: SPR; Biacore T100, 25°C; human plasma-derived VWF immobilised on flow cells, FVIII variants infused to normalized capture levels, then human α-thrombin at different concentrations applied and rates of release determined; conditions: both partners purified
T1 construct: von Willebrand factor, human, derived from plasma; Plasma VWF is a multimer; also called human VWF; source: human plasma-derived

[2] = target: T1, human plasma-derived von Willebrand …; experiment: SPR; Biacore T100, 37°C; human plasma-derived VWF immobilised on flow cells, FVIII variants infused to normalized capture levels, then human α-thrombin at different concentrations applied and rates of release determined; conditions: both partners purified

thrombin EC50 for release from VWF [1]: 3.3 ± 0.3 U/mL | thrombin EC50 for release from VWF [2]: 4 ± 0.2 U/mL
B1: BDD rFVIII (recombinant B-domain-deleted factor VIII, ReFacto / Xyntha) (natural protein)
chain 1: ATRRYYLGAVELSWDYMQSDLGELPVDARFPPRVPKSFPFNTSVVYKKTLFVEFTDHLFNIAKPRPPWMGLLGPTIQAEVYDTVVITLKNMASHPVSLHAVGVSYWKASEGAEYDDQTSQREKEDDKVFPGGSHTYVWQVLKENGPMASDPLCLTYSYLSHVDLVKDLNSGLIGALLVCREGSLAKEKTQTLHKFILLFAVFDEGKSWHSETKNSLMQDRDAASARAWPKMHTVNGYVNRSLPGLIGCHRKSVYWHVIGMGTTPEVHSIFLEGHTFLVRNHRQASLEISPITFLTAQTLLMDLGQFLLFCHISSHQHDGMEAYVKVDSCPEEPQLRMKNNEEAEDYDDDLTDSEMDVVRFDDDNSPSFIQIRSVAKKHPKTWVHYIAAEEEDWDYAPLVLAPDDRSYKSQYLNNGPQRIGRKYKKVRFMAYTDETFKTREAIQHESGILGPLLYGEVGDTLLIIFKNQASRPYNIYPHGITDVRPLYSRRLPKGVKHLKDFPILPGEIFKYKWTVTVEDGPTKSDPRCLTRYYSSFVNMERDLASGLIGPLLICYKESVDQRGNQIMSDKRNVILFSVFDENRSWYLTENIQRFLPNPAGVQLEDPEFQASNIMHSINGYVFDSLQLSVCLHEVAYWYILSIGAQTDFLSVFFSGYTFKHKMVYEDTLTLFPFSGETVFMSMENPGLWILGCHNSDFRNRGMTALLKVSSCDKNTGDYYEDSYEDISAYLLSKNNAIEPRSFSQNPPVLKRHQR
chain 2: EITRTTLQSDQEEIDYDDTISVEMKKEDFDIYDEDENQSPRSFQKKTRHYFIAAVERLWDYGMSSSPHVLRNRAQSGSVPQFKKVVFQEFTDGSFTQPLYRGELNEHLGLLGPYIRAEVEDNIMVTFRNQASRPYSFYSSLISYEEDQRQGAEPRKNFVKPNETKTYFWKVQHHMAPTKDEFDCKAWAYFSDVDLEKDVHSGLIGPLLVCHTNTLNPAHGRQVTVQEFALFFTIFDETKSWYFTENMERNCRAPCNIQMEDPTFKENYRFHAINGYIMDTLPGLVMAQDQRIRWYLLSMGSNENIHSIHFSGHVFTVRKKEEYKMALYNLYPGVFETVEMLPSKAGIWRVECLIGEHLHAGMSTLFLVYSNKCQTPLGMASGHIRDFQITASGQYGQWAPKLARLHYSGSINAWSTKEPFSWIKVDLLAPMIIHGIKTQGARQKFSSLYISQFIIMYSLDGKKWQTYRGNSTGTLMVFFGNVDSSGIKHNIFNPPIIARYIRLHPTHYSIRSTLRMELMGCDLNSCSMPLGMESKAISDAQITASSYFTNMFATWSPSKARLHLQGRSNAWRPQVNNPKEWLQVDFQKTMKVTGVTTQGVKSLLTSMYVKEFLISSSQDGHQWTLFFQNGKVKVFQGNQDSFTPVVNSLDPPLLTRYLRIHPQSWVHQIALRMEVLGCEAQDLY
modifications: ReFacto/Xyntha (moroctocog alfa): S743-Q1638 fusion by convention, the same junction as printed for rFVIIIFc; mainly two-chain after cleavage at R1648, with a minor single-chain fraction …
